Assay results as given in patent US8173771B2, “Humanin receptor or humanin-like polypeptide receptor” (Keio Univeristy, priority 2005, dated 2012).

Target: T1, G-CSFR/gp130 chimera proteins (Homo sapiens, UniProt P40189+Q99062)
T1 construct: the extracellular domain of the human G-CSF receptor fused to the full transmembrane domain; expressed in transfected cells; host or cells: F11 cells
T1 sequence (Q99062+P40189 with tags, fused parts or gaps): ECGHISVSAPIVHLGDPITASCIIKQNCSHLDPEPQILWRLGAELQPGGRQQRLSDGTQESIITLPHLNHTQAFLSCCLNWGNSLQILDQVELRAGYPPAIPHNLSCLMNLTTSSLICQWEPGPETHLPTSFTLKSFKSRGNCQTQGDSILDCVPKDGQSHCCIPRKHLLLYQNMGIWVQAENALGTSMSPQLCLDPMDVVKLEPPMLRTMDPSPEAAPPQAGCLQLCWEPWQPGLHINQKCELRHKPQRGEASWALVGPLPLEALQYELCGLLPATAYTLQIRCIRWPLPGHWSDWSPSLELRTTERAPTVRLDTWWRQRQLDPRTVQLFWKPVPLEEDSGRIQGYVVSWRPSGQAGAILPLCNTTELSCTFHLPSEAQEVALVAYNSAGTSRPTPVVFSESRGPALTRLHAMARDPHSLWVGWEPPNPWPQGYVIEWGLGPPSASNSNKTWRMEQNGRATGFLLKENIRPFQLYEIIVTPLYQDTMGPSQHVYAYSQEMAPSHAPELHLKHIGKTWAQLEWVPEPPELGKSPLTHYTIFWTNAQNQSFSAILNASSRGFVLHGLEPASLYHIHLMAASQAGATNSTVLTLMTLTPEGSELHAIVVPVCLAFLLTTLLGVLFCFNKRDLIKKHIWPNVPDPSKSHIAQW
Experiment: G-CSF stimulation of G-CSFR/gp130 chimera proteins in F11 cells, cell mortality by Trypan blue exclusion
Type: cell-based
Conditions: 100 nM; G-25 expressed
Experimental: B) F11 cells were transfected with 0.5 μg of the pcDNA3 vector or pcDNA3-APP in association with 0.5 μg of the pEFBos vector or the pEFBos vectors encoding the extracellular domain of the human G-CSF receptor fused to the full transmembrane domain and a C-terminally truncated intracytoplasmic domain of gp130 (named “G-CSFR/gp130”). G-CSFR/gp130 (277) contains the full intracytoplasmic domain of gp130 corresponding to amino acids 1-277, while G-CSFR/gp130 (25), (68), and (133) contain the intracytoplasmic domains corresponding to amino acids 1-25, 1-68, and 1-133, respectively. At 24 hr after transfection, the cells were added with indicated amounts of human G-CSF. Cell mortality was determined by Trypan blue exclusion assay at 72 hr after transfection. The results of immunoblot analysis of the expression of […] are shown in photos.
C) Instead of the pcDNA3-V6421-APP vector, pcDNA3-K595 N/M596L-APP (NL-APP), M146L-PS1 and N141-I-PS2 vectors were used to do the same experiments as in FIG. 2A. The results of immunoblot analysis of the expression of NL-APP, M146L-PS1 and N141-I-PS2 are shown in photos.
D) F11 cells were transfected with 0.5 μg of the pEFBos vector or pEF-G85R-SOD1 in association with 0.5 μg of the pEFBos vector or each pEFBos vector encoding G-CSFR/gp130 (277) or G-CSFR/gp130 (25). At 24 hr after transfection, the cells were added with indicated amounts of human G-CSF. Cell mortality was determined by Trypan blue exclusion assay at 72 hr after transfection. The results of the expression of G85R-SOD1, which were confirmed by the immunoblot analysis, are shown in photos.
Neurohybrid F11 cells and pcDNA3 vectors encoding V642I-APP, K595N/M596L-APP (NL-APP), M146L-PS1, and N141I-PS2 cDNA were prepared as already described (Hashimoto et al, 2000, 2001a, 2003). pCAG-human gp130 and pCAG-human gp130 ED (the extracellular domain of human gp130) were prepared as described (Kumanogoh et al., 1997). pcDNA3 vectors encoding the extracellular domain of the G-CSF receptor fused to the full-length transmembrane domain and various portions of the intracellular domains of human gp130, were prepared as described (Fukada et al, 1996). The intracellular domain of gp130 was C-terminally truncated. A chimera protein named G-277 contained a 277 amino acid-long full intracellular domain of gp130 (SEQ ID NO:35), while G-195, G-133, G-68, and G-25 contained the amino acids 1-195 (SEQ ID NO:36), 1-133 (SEQ ID NO:37), 1-68 (SEQ ID NO:38), and 1-25 (SEQ ID NO:39) intracellular portions, respectively. C-terminally myc-tagged human WSX-1 and myc-tagged mouse CREME9 cDNAs were amplified from human and mouse embryo cDNA (BioChain) by PCR using sets of sense primers and antisense primers: 5′-[…]-3′ (SEQ ID NO:3) and 5′-[…]-3′ (SEQ ID NO:4) for human WSX-1; 5′-[…]-3′ (SEQ ID NO:5); and 5′-[…]-3′ (SEQ ID NO:6) for mouse CREME9. Plasmids encoding C-terminally V5-tagged human CNTF-R (V %-CNTF-R) and rat IL-6R (pUCM18-rat IL-6R) were purchased from Invitrogen and American Culture Collection, respectively. A pEFBos vector comprising familial ALS (FALS) gene G85R-SOD1 was kindly provided by Dr. Shoji Tsuji. Cosmid of human wild […] was constructed by inserting a full-length gp130 into a SwaI site of pAxCAwt (TaKaRa).
The transfection procedures were as described (Hashimoto et al, 2000, 2001a, 2003). F11 cells, seeded at 7×10^4/well in 6-well dishes, were transfected with indicated vectors. Transfection efficiency in these protocols has been determined to be invariably around 70%. At 72 hrs after transfection, the Trypan blue exclusion assay and LDH assay were performed as a cell-death assay and the WST-8 assay was performed as cell-viability assays (Hashimoto et al, 2000, 2001a b, 2003). HN was added to the culture medium usually at 5 hrs after transfection, but in some cases at 24 hrs after transfection.

B1: G-CSF: human G-CSF, ligand stimulating G-CSFR/gp130 chimera proteins (protein, UniProt P09919 31-207, looked up)
Granulocyte …: TPLGPASSLPQSFLLKCLEQVRKIQGDGAALQEKLVSECATYKLCHPEELVLLGHSLGIPWAPLSSCPSQALQLAGCLSQLHSGLFLYQGLLQALEGISPELGPTLDTLQLDVADFATTIWQQMEELGMAPALQPTQGAMPAFASAFQRRAGGVLVASHLQSFLEVSYRVLRHLAQP
Q: Which “prevention of NL-APP-, M146L-PS1-, N141I-PS2-mediated neuronal cell death” value does the source give for B1 here?
A: not
